# B1: Mothers against decapentaplegic homolog 4 (Homo sapiens), Q13485 (parent)
# chain: MDNMSITNTPTSNDACLSIVHSLMCHRQGGESETFAKRAIESLVKKLKEKKDELDSLITAITTNGAHPSKCVTIQRTLDGRLQVAGRKGFPHVIYARLWRWPDLHKNELKHVKYCQYAFDLKCDSVCVNPYHYERVVSPGIDLSGLTLQSNAPSSMMVKDEYVHDFEGQPSLSTEGHSIQTIQHPPSNRASTETYSTPALLAPSESNATSTANFPNIPVASTSQPASILGGSHSEGLLQIASGPQPGQQQNGFTGQPATYHHNSTTTWTGSRTAPYTPNLPHHQNGHLQHHPPMPPHPGHYWPVHNELAFQPPISNHPAPEYWCSIAYFEMDVQVGETFKVPSSCPIVTVDGYVDPSGGDRFCLGQLSNVHRTEAIERARLHIGKGVQLECKGEGDVWVRCLSDHAVFVQSYYLDREAGRAPGDAVHKIYPSAYIKVFDLRQCHRQMQQQAATAQAAAAAQAAAVAGNIPGPGSVGGIAPAISLSAAAGIGVDDLRRLCILRMSFVKGWGPDYPRQSIKETPCWIEIHLHRALQLLDEVLHTMPIADPQPLD
# Variants of: B1
# Conditions: with smad3_human SMAD3, P84022
row,effect of a mutation on the interaction,Variant
1,disrupting interaction strength,D351H

# Variants of: B1
# Conditions: with agap2_human AGAP2, Q99490
# Chain of agap2_human AGAP2, Q99490 (Q99490 whole entry): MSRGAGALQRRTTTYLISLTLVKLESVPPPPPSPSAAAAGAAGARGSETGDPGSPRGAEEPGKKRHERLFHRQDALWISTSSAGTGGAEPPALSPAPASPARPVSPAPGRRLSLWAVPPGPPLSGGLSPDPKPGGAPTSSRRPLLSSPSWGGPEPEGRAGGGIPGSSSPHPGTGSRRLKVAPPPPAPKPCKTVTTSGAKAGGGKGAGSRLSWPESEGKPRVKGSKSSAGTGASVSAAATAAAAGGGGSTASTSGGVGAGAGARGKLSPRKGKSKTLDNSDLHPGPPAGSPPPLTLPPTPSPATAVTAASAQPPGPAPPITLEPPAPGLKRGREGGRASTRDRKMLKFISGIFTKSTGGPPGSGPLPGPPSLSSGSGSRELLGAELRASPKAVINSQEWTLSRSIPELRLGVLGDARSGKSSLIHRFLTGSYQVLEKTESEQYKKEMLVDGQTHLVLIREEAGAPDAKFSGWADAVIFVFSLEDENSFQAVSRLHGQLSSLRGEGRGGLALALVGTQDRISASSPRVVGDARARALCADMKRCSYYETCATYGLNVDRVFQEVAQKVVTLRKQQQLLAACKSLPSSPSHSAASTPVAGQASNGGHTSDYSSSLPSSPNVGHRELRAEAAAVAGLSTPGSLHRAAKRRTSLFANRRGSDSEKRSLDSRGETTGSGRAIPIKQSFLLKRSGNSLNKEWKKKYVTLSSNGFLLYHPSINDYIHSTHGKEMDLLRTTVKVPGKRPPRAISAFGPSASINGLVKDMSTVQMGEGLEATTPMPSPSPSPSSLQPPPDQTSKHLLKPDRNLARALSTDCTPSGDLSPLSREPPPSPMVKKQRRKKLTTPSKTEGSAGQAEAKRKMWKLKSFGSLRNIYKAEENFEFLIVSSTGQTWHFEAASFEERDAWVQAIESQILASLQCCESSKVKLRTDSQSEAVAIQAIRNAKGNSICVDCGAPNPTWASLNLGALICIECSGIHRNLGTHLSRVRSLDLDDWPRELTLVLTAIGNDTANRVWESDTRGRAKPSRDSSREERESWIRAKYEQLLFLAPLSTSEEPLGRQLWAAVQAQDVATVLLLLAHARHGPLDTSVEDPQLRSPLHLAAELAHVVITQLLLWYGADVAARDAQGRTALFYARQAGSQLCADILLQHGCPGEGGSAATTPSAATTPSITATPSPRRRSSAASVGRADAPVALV
row,effect of a mutation on the interaction,Variant
1,with no effect,D351H

# Variants of: B1
# Conditions: with ajuba_human AJUBA
row,effect of a mutation on the interaction,Variant
1,with no effect,D351H

# Variants of: B1
# Conditions: with akts1_human AKT1S1, Q96B36
row,effect of a mutation on the interaction,Variant
1,with no effect,D351H

# Variants of: B1
# Conditions: with akt2_human AKT2, P31751
row,effect of a mutation on the interaction,Variant
1,with no effect,D351H

# Variants of: B1
# Conditions: with alk_human ALK
row,effect of a mutation on the interaction,Variant
1,with no effect,D351H

# Variants of: B1
# Conditions: with aph1a_human APH1A
row,effect of a mutation on the interaction,Variant
1,with no effect,D351H

# Variants of: B1
# Conditions: with arnt_human ARNT
row,effect of a mutation on the interaction,Variant
1,with no effect,D351H

# Variants of: B1
# Conditions: with arc1a_human ARPC1A
row,effect of a mutation on the interaction,Variant
1,with no effect,D351H

# Variants of: B1
# Conditions: with asxl1_human ASXL1, Q8IXJ9
row,effect of a mutation on the interaction,Variant
1,with no effect,D351H

# Variants of: B1
# Conditions: with atpb_human ATP5F1B
row,effect of a mutation on the interaction,Variant
1,with no effect,D351H

# Variants of: B1
# Conditions: with aurkb_human AURKB
row,effect of a mutation on the interaction,Variant
1,with no effect,D351H

# Variants of: B1
# Conditions: with ufo_human AXL
row,effect of a mutation on the interaction,Variant
1,with no effect,D351H

# Variants of: B1
# Conditions: with za2g_human AZGP1, P25311
# Chain of za2g_human AZGP1, P25311 (P25311 whole entry): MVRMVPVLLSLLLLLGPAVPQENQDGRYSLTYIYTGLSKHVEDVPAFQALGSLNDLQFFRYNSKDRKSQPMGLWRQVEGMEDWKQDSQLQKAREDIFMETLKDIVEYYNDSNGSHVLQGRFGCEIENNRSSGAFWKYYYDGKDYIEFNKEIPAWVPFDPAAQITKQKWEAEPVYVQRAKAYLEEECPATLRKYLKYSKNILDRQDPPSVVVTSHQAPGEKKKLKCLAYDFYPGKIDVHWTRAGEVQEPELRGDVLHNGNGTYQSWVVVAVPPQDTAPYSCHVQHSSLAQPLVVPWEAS
row,effect of a mutation on the interaction,Variant
1,with no effect,D351H

# Variants of: B1
# Conditions: with b2mg_human B2M
row,effect of a mutation on the interaction,Variant
1,with no effect,D351H

# Variants of: B1
# Conditions: with becn1_human BECN1, Q14457
row,effect of a mutation on the interaction,Variant
1,with no effect,D351H

# Variants of: B1
# Conditions: with birc2_human BIRC2, Q13490
row,effect of a mutation on the interaction,Variant
1,with no effect,D351H

# Variants of: B1
# Conditions: with braf_human BRAF
row,effect of a mutation on the interaction,Variant
1,with no effect,D351H

# Variants of: B1
# Conditions: with baba2_human BABAM2, Q9NXR7
row,effect of a mutation on the interaction,Variant
1,with no effect,D351H

# Variants of: B1
# Conditions: with btg1_human BTG1, P62324
row,effect of a mutation on the interaction,Variant
1,with no effect,D351H

# Variants of: B1
# Conditions: with cbl_human CBL
row,effect of a mutation on the interaction,Variant
1,with no effect,D351H

# Variants of: B1
# Conditions: with cblb_human CBLB
row,effect of a mutation on the interaction,Variant
1,with no effect,D351H

# Variants of: B1
# Conditions: with ccnd1_human CCND1, P24385
row,effect of a mutation on the interaction,Variant
1,with no effect,D351H

# Variants of: B1
# Conditions: with ccnd2_human CCND2, P30279
# Chain of ccnd2_human CCND2, P30279 (P30279 whole entry): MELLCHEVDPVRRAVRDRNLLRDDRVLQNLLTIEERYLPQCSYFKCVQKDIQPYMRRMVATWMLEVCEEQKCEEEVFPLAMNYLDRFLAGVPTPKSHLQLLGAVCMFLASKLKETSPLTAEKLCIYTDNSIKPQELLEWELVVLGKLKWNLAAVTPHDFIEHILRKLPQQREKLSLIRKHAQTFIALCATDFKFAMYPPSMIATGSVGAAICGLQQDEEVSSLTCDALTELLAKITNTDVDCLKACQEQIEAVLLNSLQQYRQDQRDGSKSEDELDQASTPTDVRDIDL
row,effect of a mutation on the interaction,Variant
1,with no effect,D351H

# Variants of: B1
# Conditions: with ccnd3_human CCND3, P30281
row,effect of a mutation on the interaction,Variant
1,with no effect,D351H

# Variants of: B1
# Conditions: with ccne1_human CCNE1, P24864
row,effect of a mutation on the interaction,Variant
1,with no effect,D351H

# Variants of: B1
# Conditions: with cd44_human CD44, P16070
row,effect of a mutation on the interaction,Variant
1,with no effect,D351H

# Variants of: B1
# Conditions: with cd79b_human CD79B
row,effect of a mutation on the interaction,Variant
1,with no effect,D351H

# Variants of: B1
# Conditions: with cdk4_human CDK4, P11802
row,effect of a mutation on the interaction,Variant
1,with no effect,D351H

# Variants of: B1
# Conditions: with cdn2b_human CDKN2B
row,effect of a mutation on the interaction,Variant
1,with no effect,D351H

# Variants of: B1
# Conditions: with cdn2c_human CDKN2C
row,effect of a mutation on the interaction,Variant
1,with no effect,D351H

# Variants of: B1
# Conditions: with cebpa_human CEBPA
row,effect of a mutation on the interaction,Variant
1,with no effect,D351H

# Variants of: B1
# Conditions: with chd1l_human CHD1L
row,effect of a mutation on the interaction,Variant
1,with no effect,D351H

# Variants of: B1
# Conditions: with chd2_human CHD2, O14647
row,effect of a mutation on the interaction,Variant
1,with no effect,D351H

# Variants of: B1
# Conditions: with ch3l1_human CHI3L1, P36222
row,effect of a mutation on the interaction,Variant
1,with no effect,D351H

# Variants of: B1
# Conditions: with csf1r_human CSF1R
row,effect of a mutation on the interaction,Variant
1,with no effect,D351H

# Variants of: B1
# Conditions: with ctna1_human CTNNA1, P35221
row,effect of a mutation on the interaction,Variant
1,with no effect,D351H

# Variants of: B1
# Conditions: with ctnb1_human CTNNB1, P35222
row,effect of a mutation on the interaction,Variant
1,with no effect,D351H

# Variants of: B1
# Conditions: with cul3_human CUL3, Q13618
row,effect of a mutation on the interaction,Variant
1,with no effect,D351H

# Variants of: B1
# Conditions: with dicer_human DICER1, Q9UPY3
row,effect of a mutation on the interaction,Variant
1,with no effect,D351H

# Variants of: B1
# Conditions: with duox2_human DUOX2, Q9NRD8
# Chain of duox2_human DUOX2, Q9NRD8 (Q9NRD8 whole entry): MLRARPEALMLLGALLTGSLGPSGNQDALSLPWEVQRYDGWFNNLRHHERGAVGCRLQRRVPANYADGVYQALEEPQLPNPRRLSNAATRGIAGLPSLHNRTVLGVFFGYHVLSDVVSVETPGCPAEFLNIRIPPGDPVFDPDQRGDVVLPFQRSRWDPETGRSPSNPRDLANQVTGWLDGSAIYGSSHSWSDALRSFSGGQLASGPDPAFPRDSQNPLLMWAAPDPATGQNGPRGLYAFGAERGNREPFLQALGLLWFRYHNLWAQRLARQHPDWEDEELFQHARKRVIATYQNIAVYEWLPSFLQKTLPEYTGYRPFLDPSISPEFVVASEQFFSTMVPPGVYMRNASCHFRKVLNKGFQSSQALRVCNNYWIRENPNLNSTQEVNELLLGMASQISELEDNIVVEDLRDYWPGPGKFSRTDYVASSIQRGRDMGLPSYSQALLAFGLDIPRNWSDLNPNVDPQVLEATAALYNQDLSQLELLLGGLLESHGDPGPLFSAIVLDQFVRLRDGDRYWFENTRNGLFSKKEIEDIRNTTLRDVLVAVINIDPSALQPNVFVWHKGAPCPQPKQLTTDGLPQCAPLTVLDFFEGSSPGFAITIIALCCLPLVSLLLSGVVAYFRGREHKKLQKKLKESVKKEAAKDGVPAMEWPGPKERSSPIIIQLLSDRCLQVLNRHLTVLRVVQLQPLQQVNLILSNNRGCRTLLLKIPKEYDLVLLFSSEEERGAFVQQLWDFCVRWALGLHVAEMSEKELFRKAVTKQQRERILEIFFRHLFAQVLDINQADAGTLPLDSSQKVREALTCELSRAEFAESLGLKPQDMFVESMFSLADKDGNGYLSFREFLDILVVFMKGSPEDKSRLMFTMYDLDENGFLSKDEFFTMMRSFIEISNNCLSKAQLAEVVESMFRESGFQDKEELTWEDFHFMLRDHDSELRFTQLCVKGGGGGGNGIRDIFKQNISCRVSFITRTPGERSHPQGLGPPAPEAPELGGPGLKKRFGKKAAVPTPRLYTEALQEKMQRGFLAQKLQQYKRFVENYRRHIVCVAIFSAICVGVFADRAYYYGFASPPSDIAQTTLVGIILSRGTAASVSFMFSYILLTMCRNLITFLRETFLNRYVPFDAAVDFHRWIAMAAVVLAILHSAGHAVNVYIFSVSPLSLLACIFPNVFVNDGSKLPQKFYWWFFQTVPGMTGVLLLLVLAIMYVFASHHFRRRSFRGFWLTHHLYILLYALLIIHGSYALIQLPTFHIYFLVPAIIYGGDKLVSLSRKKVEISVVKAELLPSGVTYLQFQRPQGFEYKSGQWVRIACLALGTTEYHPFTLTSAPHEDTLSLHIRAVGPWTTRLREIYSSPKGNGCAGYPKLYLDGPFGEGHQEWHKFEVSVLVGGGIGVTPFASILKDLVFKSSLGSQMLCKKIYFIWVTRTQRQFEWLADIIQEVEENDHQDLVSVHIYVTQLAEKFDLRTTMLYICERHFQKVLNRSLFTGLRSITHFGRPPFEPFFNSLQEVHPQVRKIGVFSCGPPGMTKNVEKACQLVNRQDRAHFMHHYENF
row,effect of a mutation on the interaction,Variant
1,with no effect,D351H

# Variants of: B1
# Conditions: with e2f1_human E2F1, Q01094
row,effect of a mutation on the interaction,Variant
1,with no effect,D351H

# Variants of: B1
# Conditions: with e2f2_human E2F2, Q14209
row,effect of a mutation on the interaction,Variant
1,with no effect,D351H

# Variants of: B1
# Conditions: with e2f3_human E2F3, O00716
row,effect of a mutation on the interaction,Variant
1,with no effect,D351H

# Variants of: B1
# Conditions: with e2f4_human E2F4, Q16254
row,effect of a mutation on the interaction,Variant
1,with no effect,D351H

# Variants of: B1
# Conditions: with e2f5_human E2F5, Q15329
row,effect of a mutation on the interaction,Variant
1,with no effect,D351H

# Variants of: B1
# Conditions: with if4e_human EIF4E
row,effect of a mutation on the interaction,Variant
1,with no effect,D351H

# Variants of: B1
# Conditions: with epha7_human EPHA7, Q15375
row,effect of a mutation on the interaction,Variant
1,with no effect,D351H

# Variants of: B1
# Conditions: with ephb1_human EPHB1, P54762
# Chain of ephb1_human EPHB1, P54762 (P54762 whole entry): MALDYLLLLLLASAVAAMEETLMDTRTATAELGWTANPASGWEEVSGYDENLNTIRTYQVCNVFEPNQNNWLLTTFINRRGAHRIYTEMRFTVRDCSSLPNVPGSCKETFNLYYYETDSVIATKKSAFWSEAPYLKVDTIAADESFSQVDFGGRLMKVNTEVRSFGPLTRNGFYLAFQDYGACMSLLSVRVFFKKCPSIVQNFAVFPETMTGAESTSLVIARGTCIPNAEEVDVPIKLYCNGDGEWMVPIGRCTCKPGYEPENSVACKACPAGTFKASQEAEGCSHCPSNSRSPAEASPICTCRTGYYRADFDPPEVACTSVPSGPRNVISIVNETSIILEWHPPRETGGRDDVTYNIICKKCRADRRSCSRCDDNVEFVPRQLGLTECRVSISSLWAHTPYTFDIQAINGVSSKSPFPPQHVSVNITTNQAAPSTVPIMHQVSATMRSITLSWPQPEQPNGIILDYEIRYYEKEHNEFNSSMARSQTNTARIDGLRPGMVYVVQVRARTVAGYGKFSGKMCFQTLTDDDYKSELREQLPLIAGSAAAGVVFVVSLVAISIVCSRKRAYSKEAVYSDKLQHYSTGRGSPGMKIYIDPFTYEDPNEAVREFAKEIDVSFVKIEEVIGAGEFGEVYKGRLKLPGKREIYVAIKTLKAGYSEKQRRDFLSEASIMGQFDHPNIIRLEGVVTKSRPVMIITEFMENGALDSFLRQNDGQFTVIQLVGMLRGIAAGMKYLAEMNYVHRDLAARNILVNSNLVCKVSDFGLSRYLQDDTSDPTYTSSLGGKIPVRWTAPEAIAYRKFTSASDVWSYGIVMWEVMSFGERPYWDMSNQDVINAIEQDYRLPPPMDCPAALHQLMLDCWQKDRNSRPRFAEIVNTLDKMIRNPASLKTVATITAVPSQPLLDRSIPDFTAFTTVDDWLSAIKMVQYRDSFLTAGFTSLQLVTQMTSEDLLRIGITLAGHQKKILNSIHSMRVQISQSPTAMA
row,effect of a mutation on the interaction,Variant
1,with no effect,D351H

# Variants of: B1
# Conditions: with erbb3_human ERBB3, P21860
row,effect of a mutation on the interaction,Variant
1,with no effect,D351H

# Variants of: B1
# Conditions: with erbb4_human ERBB4, Q15303
row,effect of a mutation on the interaction,Variant
1,with no effect,D351H

# Variants of: B1
# Conditions: with esr1_human ESR1, P03372
row,effect of a mutation on the interaction,Variant
1,with no effect,D351H

# Variants of: B1
# Conditions: with etv1_human ETV1, P50549
row,effect of a mutation on the interaction,Variant
1,with no effect,D351H

# Variants of: B1
# Conditions: with fadd_human FADD
row,effect of a mutation on the interaction,Variant
1,with no effect,D351H

# Variants of: B1
# Conditions: with facd2_human FANCD2, Q9BXW9
row,effect of a mutation on the interaction,Variant
1,with no effect,D351H

# Variants of: B1
# Conditions: with fgf19_human FGF19, O95750
# Chain of fgf19_human FGF19, O95750 (O95750 whole entry): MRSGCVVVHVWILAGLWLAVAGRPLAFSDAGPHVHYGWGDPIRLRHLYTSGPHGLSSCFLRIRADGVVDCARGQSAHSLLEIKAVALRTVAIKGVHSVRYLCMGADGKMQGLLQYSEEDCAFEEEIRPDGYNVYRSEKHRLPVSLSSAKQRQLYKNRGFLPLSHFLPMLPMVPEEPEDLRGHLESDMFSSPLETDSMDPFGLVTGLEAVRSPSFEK
row,effect of a mutation on the interaction,Variant
1,with no effect,D351H

# Variants of: B1
# Conditions: with fgfp1_human FGFBP1, Q14512
row,effect of a mutation on the interaction,Variant
1,with no effect,D351H

# Variants of: B1
# Conditions: with fgfr3_human FGFR3, P22607
row,effect of a mutation on the interaction,Variant
1,with no effect,D351H

# Variants of: B1
# Conditions: with fgfr4_human FGFR4, P22455
row,effect of a mutation on the interaction,Variant
1,with no effect,D351H

# Variants of: B1
# Conditions: with fumh_human FH
row,effect of a mutation on the interaction,Variant
1,with no effect,D351H

# Variants of: B1
# Conditions: with foxo1_human FOXO1, Q12778
row,effect of a mutation on the interaction,Variant
1,with no effect,D351H

# Variants of: B1
# Conditions: with foxo3_human FOXO3, O43524
row,effect of a mutation on the interaction,Variant
1,with no effect,D351H

# Variants of: B1
# Conditions: with gbra6_human GABRA6, Q16445
row,effect of a mutation on the interaction,Variant
1,with no effect,D351H

# Variants of: B1
# Conditions: with gata2_human GATA2, P23769
row,effect of a mutation on the interaction,Variant
1,with no effect,D351H

# Variants of: B1
# Conditions: with gata3_human GATA3, P23771
row,effect of a mutation on the interaction,Variant
1,with no effect,D351H

# Variants of: B1
# Conditions: with gna11_human GNA11, P29992
# Chain of gna11_human GNA11, P29992 (P29992 whole entry): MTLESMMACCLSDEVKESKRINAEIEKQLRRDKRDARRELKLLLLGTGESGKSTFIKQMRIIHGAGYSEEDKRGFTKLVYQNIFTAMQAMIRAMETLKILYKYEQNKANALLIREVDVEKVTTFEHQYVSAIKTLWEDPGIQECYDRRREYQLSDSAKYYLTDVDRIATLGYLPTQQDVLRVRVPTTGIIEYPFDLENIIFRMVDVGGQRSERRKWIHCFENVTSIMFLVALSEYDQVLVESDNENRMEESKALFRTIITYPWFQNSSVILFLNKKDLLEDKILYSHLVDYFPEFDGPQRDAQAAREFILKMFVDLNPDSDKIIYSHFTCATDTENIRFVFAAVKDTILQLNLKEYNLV
row,effect of a mutation on the interaction,Variant
1,with no effect,D351H

# Variants of: B1
# Conditions: with gna13_human GNA13, Q14344
row,effect of a mutation on the interaction,Variant
1,with no effect,D351H

# Variants of: B1
# Conditions: with gnaq_human GNAQ
row,effect of a mutation on the interaction,Variant
1,with no effect,D351H

# Variants of: B1
# Conditions: with grb7_human GRB7, Q14451
row,effect of a mutation on the interaction,Variant
1,with no effect,D351H

# Variants of: B1
# Conditions: with grm1_human GRM1, Q13255
row,effect of a mutation on the interaction,Variant
1,with no effect,D351H

# Variants of: B1
# Conditions: with grm3_human GRM3, Q14832
row,effect of a mutation on the interaction,Variant
1,with no effect,D351H

# Variants of: B1
# Conditions: with gsk3a_human GSK3A
row,effect of a mutation on the interaction,Variant
1,with no effect,D351H

# Variants of: B1
# Conditions: with hdac1_human HDAC1, Q13547
row,effect of a mutation on the interaction,Variant
1,with no effect,D351H

# Variants of: B1
# Conditions: with hdac3_human HDAC3, O15379
row,effect of a mutation on the interaction,Variant
1,with no effect,D351H

# Variants of: B1
# Conditions: with hgf_human HGF
row,effect of a mutation on the interaction,Variant
1,with no effect,D351H

# Variants of: B1
# Conditions: with h31_human H3C1, P68431
row,effect of a mutation on the interaction,Variant
1,with no effect,D351H

# Variants of: B1
# Conditions: with hlab_human HLA-B
row,effect of a mutation on the interaction,Variant
1,with no effect,D351H

# Variants of: B1
# Conditions: with rash_human HRAS
row,effect of a mutation on the interaction,Variant
1,with no effect,D351H

# Variants of: B1
# Conditions: with hs90a_human HSP90AA1, P07900
row,effect of a mutation on the interaction,Variant
1,with no effect,D351H

# Variants of: B1
# Conditions: with il7ra_human IL7R
row,effect of a mutation on the interaction,Variant
1,with no effect,D351H

# Variants of: B1
# Conditions: with irf6_human IRF6, O14896
row,effect of a mutation on the interaction,Variant
1,with no effect,D351H

# Variants of: B1
# Conditions: with irs1_human IRS1, P35568
row,effect of a mutation on the interaction,Variant
1,with no effect,D351H

# Variants of: B1
# Conditions: with jak1_human JAK1, P23458
row,effect of a mutation on the interaction,Variant
1,with no effect,D351H

# Variants of: B1
# Conditions: with kat2a_human KAT2A
row,effect of a mutation on the interaction,Variant
1,with no effect,D351H

# Variants of: B1
# Conditions: with kdm5c_human KDM5C
row,effect of a mutation on the interaction,Variant
1,with no effect,D351H

# Variants of: B1
# Conditions: with kdm6a_human KDM6A
row,effect of a mutation on the interaction,Variant
1,with no effect,D351H

# Variants of: B1
# Conditions: with vgfr2_human KDR
row,effect of a mutation on the interaction,Variant
1,with no effect,D351H

# Source: IntAct's records for PubMed 35512704
